Two proteins from patent publication US20030207791A1 (published 2003) can be followed below.

Data set [1] concerns the molecule itself. The experiment in a line: gel filtration. For orientation: SEC sorts molecules by how far they enter the pores of the column.
Data set [2] deals with the molecule itself. Put plainly: gel filtration and in vitro cross-linking of the purified domain.

B1: AML1-ETO (other, UniProt Q01196 1-177, looked up)
chain: MRIPVDASTSRRFTPPSTALSPGKMSEALPLGAPDAGAALAGKLRSGDRSMVEVLADHPGELVRTDSPNFLCSVLPTHWRCNKTLPIAFKVVALGDVPDGTLVTVMAGNDENYSAELRNATAAMKNQVARFNDLRFVGRSGRGKSFTLTITVFTNPPQVATYHRAIKITVDGPREPRDRTEKHSTMPDSPVDVKTQSRLTPPTMPPPPTTQGAPRTSSFTPTTLTNGTSHSPTALNGAPSPPNGFSNGPSSSSSSSLANQQLPPACGARQLSKLKRFLTTLQQFGNDISPEIGERVRTLVLGLVNSTLTIEEFHSKLQEATNFPLRPFVIPFLKANLPLLQRELLHCARLAKQNPAQYLAQHEQLLLDASTTSPVDSSELLLDVNENGKRRTPDRTKENGFDREPLHSEHPSKRPCTISPGQRYSPNNGLSYQPNGLPHPTPPPPQHYRLDDMAIAHHYRDSYRHPSHRDLRDRNRPMGLHGTRQEEMIDHRLTDREWAEEWKHLDHLLNCIMDMVEKTRRSLTVLRRCQEADREELNYWIRRYSDAEDLKKGGGSSSSHSRQQSPVNPDPVALDAHREFLHRPASGYVPEEIWKKAEEAVNEVKRQAMTELQKAVSEAERKAHDMITTERAKMERTVAEAKRQAAEDALAVINQQEDSSESCWNCGRKASETCSGCNTARYCGSFCQHKDWEKHHHICGQTLQAQQQGDTPAVSSSVTPNSGAGSPMDTPPAATPRSTTPGTPSTIETTPR
notes: The plasmid list names pcDNA3-myc-AML1-ETO; Also made in bacteria as an MBP fusion, MBP removed by factor Xa; also called myc-AML1-ETO
As for B1, the binding result in data set [1] is “binds”.

B2: isolated coiled coil domain of PML (other)
chain: SELKCDISAEIQQRQEELDAMTQALQALQEQDSAEGAVHAQMHAAVGQLGRARAETEELIRERVRQVVAHVRAQERELLEAVDARYQRDYEEMASRLGRLDAVLQRIRTGSALVQRMKCYASDQEVLDMHGFLRQALCRLR
notes: Expressed in BL21 as a GST fusion and freed by site-specific cleavage; also called CC; CC domain of PML
For B2, in data set [2], the binding result is reported as “binds”.
